Results published in paper PMC9523724.

Target: commercial orange peel PME (pectin methylesterase, Sigma p5400) (orange (peel))

- relative activity of MePMEI1 (loss of PME activity with MePMEI1 against the initial PME activity) at pH 4.5, 5.5, 6.5, 7.5 and 8.5; highest at pH 5.5, falling with rising pH: 31%
Substance: recombinant MePMEI1 protein (pectin methylesterase inhibitor 1 of Manihot esculenta) (natural protein)
